Data reported in publication PMC3320896.

Molecular target: recombinant Hepatitis B surface antigen (rHBsAg) virus-like particle, S form of HBsAg (Hepatitis B virus)
Assay: cryo-EM structure; redox-treated rHBsAg VLPs in vitrified ice; 3D reconstruction with octahedral symmetry imposed, nominal resolution ~1.5 nm (FSC0.5); monomers counted from the volume of segmented protein density

Question: “recombinant Hepatitis B surface antigen (rHBsAg) virus-like particle, S form of HBsAg (natural protein)” was tested. Which stoichiometry N (protein monomers per particle) did it give?
Answer: 96
